Publication PMC2935283, “Molecular recognition between Escherichia coli enolase and ribonuclease E” (Acta Crystallographica Section D: Biological Crystallography, 2010)

Biological target: the molecule itself
Assay: native MS; enolase mixed with the microdomain in a 1:1.5 molar ratio, room temperature, 20 min; nanoflow ESI, tandem nondissociating QTOF-MS/MS

B1: Escherichia coli enolase (enzyme, E. coli)
chain: MSKIVKIIGREIIDSRGNPTVEAEVHLEGGFVGMAAAPSGASTGSREALELRDGDKSRFLGKGVTKAVAAVNGPIAQALIGKDAKDQAGIDKIMIDLDGTENKSKFGANAILAVSLANAKAAAAAKGMPLYEHIAELNGTPGKYSMPVPMMNIINGGEHADNNVDIQEFMIQPVGAKTVKEAIRMGSEVFHHLAKVLKAKGMNTAVGDEGGYAPNLGSNAEALAVIAEAVKAAGYELGKDITLAMDCAASEFYKDGKYVLAGEGNKAFTSEEFTHFLEELTKQYPIVSIEDGLDESDWDGFAYQTKVLGDKIQLVGDDLFVTNTKILKEGIEKGIANSILIKFNQIGSLTETLAAIKMAKDAGYTAVISHRSGETEDATIADLAVGTAAGQIKTGSMSRSDRVAKYNQLIRIEEALGEKAPYNGRKEIKGQA
notes: enolase (EC 4.2.1.11), E. coli; overexpressed from pET11a; Purified as described in Kuhnel & Luisi, 2001; Homodimer in the crystal and by nondissociating mass spectrometry; also called enolase dimer; dimeric enolase; source: E. coli BL21 (DE3), pET11a vector, purified
stoichiometry N: 2
